{"source": "paper PMC7059798", "about": "“Phosphoglucomutase Is Not the Target for Galactose Toxicity in Plants” (Frontiers in Plant Science, 2020)", "key": {"[1]": {"substrate": "O=P(O)(O)OC[C@H]1O[C@H](OP(=O)(O)O)[C@H](O)[C@@H](O)[C@@H]1O", "test": "purified protein", "format": "biochemical, Arabidopsis thaliana", "details": "50 mM TEAB pH 7.0, 2 mM MgCl2, Glc-1P as substrate, 25°C, catalytic intermediate, Figure 3 legend prints 4.3, varied: cofactor"}, "[2]": {"substrate": "O=P(O)(O)O[C@H]1O[C@H](CO)[C@@H](O)[C@H](O)[C@H]1O", "test": "purified protein", "format": "biochemical, Arabidopsis thaliana", "details": "50 mM TEAB pH 7.0, 2 mM MgCl2, 10 µM Glc-1,6bP, 25°C"}}}
{"protein": "PGM3 (Arabidopsis thaliana) (protein, forward primer encodes (tag)HHHHHG-MVFKVSTVS) MVFKVSTVSTSPIDGQKPGTSGLRKKVKVFKQPNYLENFVQATFNALTAEKVKGATLVVSGDGRYYSKDAVQIIIKMAAANGVRRVWVGKNTLLSTPAVSAVIRERSGADGSKATGAFILTASHNPGGPTEDFGIKYNMENGGPAPESITDKIYENTKTIKEYPIAQDLPNVDISAVGVTSFEGPEGKFDVEVFDPADDYVKLMKSIFDFEAIRKLLSSPKFTFCYDALHGVAGAYAHRIFVEELGAQESALLNCTPKEDFGGGHPDPNLTYAKELVARMGLGKSDTGGEPPEFGAAADGDADRNMILGKRFFVTPSDSVAIIAANAIGAIPYFSSGLKGVARSMPTSAALDVVAKSLNLKFFEVPTGWKFFGNLMDAGMCSVCGEESFGTGSDHIREKDGIWAVLAWMSILAHKNKGNIDGNAKLVSVEDIVRQHWATYGRHYYTRYDYENVDAGKAKELMEHLVKLQSSIPEVNKIVKGIRSDVASVASADEFEYKDPVDGSISKHQGIRYLFEDGSRLVFRLSGTGSEGATIRLYIEQYEKDASKTGRESQEALSPLVDLALKLSKMEEFTGRSAPTVIT", "values": [{"measurement": "Km", "setting": "[1]", "value": 4.38, "unit": "µM"}, {"measurement": "Km", "setting": "[2]", "value": 90, "unit": "µM"}]}
